US8624002B2, “Prostaglandin E2 binding proteins and uses thereof” (AbbVie, Inc., priority 2008, dated 2014)

Key:
[1] = test system: carrageenan-induced paw edema; assay: Carrageenan-induced footpad edema model; type: in vivo, C57.BL/6 mice; conditions: 3 mg/kg, p.o.
Experimental: Carrageenan-Induced Footpad Edema is an acute rodent model of innate immune function. The in vivo efficacy of mouse anti-PGE2 antibody 2B5-8.0 is assessed in a carragenan-induced paw edema model. The induction of paw inflammation with carrageenan is performed similarly as previously described (Joseph P. Portanova, et al. J. Exp. Med. 184: 883-891 (1996)). Intradermal (ID) injection of an inflammatory agent causes a rapid influx of neutrophils and fluid edema which peaks at approximately 4 hours, followed by an influx of macrophages and monocytes which peaks at approximately 48 hours. C57.BL/6 mice (8-10-week-old, Jackson Laboratories, Bar Harbor, Me.) were injected ID in the rear footpad with 30 μL of either PBS (left) or λ-carrageenen (Sigma Aldrich, St. Louis, Mo.) in PBS (right) at a concentration of 5.0 mg/mL (150 μg/mouse). Rear footpad thickness was measured by Dyer spring caliper model #310-119 at baseline (time=0), and 4 hours post carrageenan challenge. Significant difference for paw thickness was determined by comparing mean paw swelling for each treatment group to vehicle in a Student's two-tailed t-test. Mice were given a dose titration of an anti-PGE2 antibody (2B5-8.0) intraperitonially (IP) 18 hours prior to carrageenan challenge, or Indomethacin, PO 2 hours prior to challenge. The endpoint measured was the difference in paw swelling (edema) between right and left paws 4 hours after treatment.

[2] = Pharmacokinetics of hu2B5.7 and hu2B5.4 in Sprague-Dawley rats; type: in vivo; conditions: male Sprague-Dawley rats, IV 4 mg/kg
Experimental: Pharmacokinetic parameters were calculated by non-compartmental analysis using WinNonlin.
MSD streptavidin plates (Meso Scale Discovery) were washed with phosphate buffered saline containing 0.05% Tween-20 (diluted from 10×PBS, Abbott Bioresearch Center, Media Room, Worcester, Mass. and Tween-20, Sigma, St. Louis, Mo.). Plates were blocked with 250 μL/well blocking solution (MSD Block, Meso Scale Discovery, diluted to 3% final concentration in PBS) for 1 hour, covered, with shaking (600 rpm) at room temperature. After washing, 70 μL of biotinylated PGE2 (Prostoglandin E2-biotinamide, Cayman Chemical, Ann Arbor, Mich., cat# 10006987, lot# 190831-191028; 0.01 ug/mL in assay buffer) was added to each well. The plates were covered and incubated with shaking (600 rpm) for 1 hour at room temperature.
Prior to analysis, rat serum samples were thawed on ice, mixed gently, and centrifuged at 14,000 rpm for 3 minutes at 4° C. in an eppendorf centrifuge. Standard curve and control samples were prepared in rat serum. Tecan Evo automated liquid handling station was used to dilute standard curve, high, medium, and low controls, and serum samples in assay buffer, keeping 1% final serum concentration constant. MSD plates were washed again and study samples, standard curve samples and blanks, as well as high, medium, and low controls were added (70 μL/well). The plates were covered, and incubated for 1 hour with shaking (600 rpm) at room temperature.
After incubation, the MSD plates were washed, and 70 μL sulfo-tagged goat anti-human IgG (Meso Scale Discovery; diluted to 1 ug/mL in assay buffer) was added to each well. The MSD plates were covered, and incubated with shaking (600 rpm) for 1 hour at room temperature, then the plates were washed and developed with 2× Read Buffer (Meso Scale Discovery). Chemilumeniscence was measured within ten minutes on the MSD Sector Imager 6000.
Standard curves were analyzed using four-parameter logistic fit and sample concentrations were calculated by XLfit4 software version 2.2.1 Build 16, ([…].). Pharmacokinetic parameters were calculated for each animal using Winonlin software version 5.0.1 (Pharsight Corporation, Mountain View, Calif.) by noncompartmental analysis.
Surgically altered jugular vein cannulated, JVC) male Sprague-Dawley Rats (approximately seven weeks old, weighing 240-390 grams) were purchased from Charles River Laboratories (Wilmington, Mass.). The animals were housed in rooms maintained at constant temperature and humidity under a 12 hour light/dark cycle, fed with normal rodent chow and were allowed food and water ad libitum. Hydration and clinical conditions of the animals were monitored daily.
0.2 mL blood samples were collected from the rats at various timepoints, allowed to clot for 30 minutes at room temperature, centrifuged for 3 minutes at 13,200 rpm, the serum transferred to eppendorf tubes and stored frozen at −80° C.

[3] = test system: PGE2 induced Ca++ influx in HEK293 Gα16 cells stably transfected with human EP4 receptor; assay: EP4 bioassay: PGE2 induced Ca++ flux (FLIPR); type: cell-based; conditions: PGE2 25 pm; read-out: IC50 (pM) @ PGE2 25 pm Cellular Potency in EP4 assay
Experimental: The ability of anti-PGE2 antibody to inhibit cellular response of PGE2 in vitro was determined in a Ca^++ flux assay in HEK293 Gα16 cells (Abbott Bioresearch Center, Worcester, Mass.) stably transfected with human EP4 receptor. In brief, an expression plasmid encoding one of the four human PGE2 receptors, EP4, and an expression plasmid encoding Gα16, were co-transfected into human embryonic kidney cell line 293 cells (ATCC# CRL1573, Manassas, Va.). The stable clones co-expressing both human EP4 and Gα16 protein were selected using standard methods (Joseph Sambrook and David W. Russell. Molecular Cloning: A Laboratory Manual Publisher. Published by Cold Spring Harbor Laboratory Press, 2001) and used for the EP4 bioassay. The HEK293 Gα16 cells were plated in black/clear poly-D-lysine plates (Corning #3667, Corning, N.Y.) and incubated with a Ca^++-sensitive dye (Molecular Devices, Sunnyvale, Calif.) for 90 minutes. Stock PGE2 (in 200 proof ethanol) was diluted with FLIPR buffer [containing 1×HBSS (Invitrogen Carlsbad, Calif.), 20 mM HEPES (Invitrogen Carlsbad, Calif.), 0.1% BSA (Sigma, St. Louis, Mo.) and 2.5 mM Probenecid (Sigma, St. Louis, Mo.)]. Anti-PGE2 antibodies or isotype matched control antibodies were also pre-diluted in FLIPR buffer. 25 μl of PGE2 or pre-incubated PGE2/antibody mixture was added to the wells pre-plated with cells. The dose response of PGE2 was determined on a serial titration of PGE2 and using FLIPR1 or Tetra (Molecular Devices, Sunnyvale, Calif.) and EC50 was determined using GraphPad Prism 5 (GraphPad Software, La Jolla, Calif.). […] Ca^++ flux was monitored using FLIPR1 and data was analyzed using GraphPad Prism 5 (GraphPad Software, La Jolla, Calif.).

[4] = Capillary zone electrophoresis; type: physicochemical; conditions: running buffer pH 5.5; compared with Hu2B5.2, Hu2B5.4, Hu2B5.6, Hu2B5.8
Excerpt: Capillary zone electrophoresis is a capillary electrophoresis method in which the capillary is filled with buffer and the separation mechanism is based on differences in electrophoretic mobility of the analyte through the buffer. The electrophoretic mobility of a molecule is related to the charge-to-size ratio. A Beckman-Coulter ProteomeLab PA 800 (Beckman Coulter, Fullerton, Calif.) was used for the CZE analysis. A neutral capillary (eCAP neutral, 56 cm total length, 50 μm I. D. Beckman-Coulter, P/N 477441, Fullerton, Calif.) was used. The method used a 30.2 cm capillary with a detection window 20.2 cm from the sample introduction inlet. The running buffer was 100 mM EACA (6-Aminocaproic acid, Sigma A7824-100 G, St. Louis, Mo.) with 0.1% MC (from 1% Methylcellulose solution, Convergent Bioscience, cat# 101876, Toronto, ON, Canada), pH 5.5.

[5] = ^3H-PGE2 competition ELISA (prostaglandin selectivity); type: binding
Experimental: Alternatively, prostaglandin selectivity was determined using a ^3H-PGE2 competition ELISA. Plates were coated with 50 μL/well of 5 μg/ml of goat anti-human IgG (Fc) (Thermo Scientific # 31170, Hudson, N.H.) or goat anti-mouse IgG (Fc) (Thermo Scientific # 31125, Hudson, N.H.) in PBS and incubated overnight at 4° C. The following day plates were flicked and blotted dry. Plates were blocked with 200 μL/well of Superblock (Thermo Scientific # 37515, Hudson, N.H.), 1 hour at room temperature. Plates were flicked and blotted dry. Monoclonal antibodies were diluted to 0.04 μg/ml in PBST (Abbott Bioresearch Center, Worcester, Mass.)/10% Superblock and 50 μL of each was added to each well (2 ng/well) of the pre-blocked ELISA plate and incubated for 1 hour at room temperature. Wells were washed 3 times with PBS/0.1% Tween-20. ^3H-PGE2 (Perkin Elmer # NET-428, Waltham, Mass.) was diluted in PBST/10% Superblock to 6 nM (2× stock). Each prostaglandin (Cayman Chemicals, Ann Arbor, Mich.) was prepared in PBST+10% Superblock at various concentrations ranging from 2000 μM (2× stock) to 0.00004 μM (2×). Equal volumes of the ^3H-PGE2 solution and of each prostaglandin dilution were mixed. Fifty microliters of this mixture was then added to each well of the plate and incubated for 1 hour at room temperature. Wells were washed manually 6 times with PBST/10% Superblock and 50 μL of scintillation fluid (Perkin Elmer # 6013621, Waltham, Mass.) added to each well. Plates were read using a TopCount reader (Perkin Elmer, Waltham, Mass.) with a 5 minute count delay. IC50 number was determined using GraphPad Prism 5 (GraphPad Software, La Jolla, Calif.). The cross reactivity index was then calculated by IC50 of PGE2/IC50 of other prostaglandin(s)

[6] = Biotin-PGE2 ELISA (PGE2-biotinamide binding to captured IgG)

prostaglandin binding specificity in ^3H-PGE2 competition ELISA [5]	EC50 [6]	Molecule	Δ Paw Swelling (mm) ([1]; 2 hours prior to challenge, 4 hours post challenge)	% Inhibition ([1]; paw swelling 4 hours post challenge)	AUC0-∞ [2]	CL [2]	MRT [2]	T½ [2]	Vss [2]	Vz [2]	IC50 [3]	migration in capillary zone electrophoresis [4]
–	–	COc1ccc2c(c1)c(CC(=O)O)c(C)n2C(=O)c1ccc(Cl)cc1 [Indomethacin, reference compound]	0.486 ± 0.03 mm	57 ± 3.5%	–	–	–	–	–	–	–	–
demonstrated specificity to PGE2	79 pM	Hu2B5.7: humanized 2B5-8.0; VH SEQ ID NO 72, VL SEQ ID NO 73 (antibody, V domains shown) VH: EVQLVQSGAEVKKPGASVKVSCKASGYTFTKYWLGWVRQAPGQGLEWMGDIYPGYDYTHYNEKFKDRVTLTTDTSTSTAYMELRSLRSDDTAVYYCARSDGSSTYWGQGTLVTVSS VL: DVLMTQTPLSLPVTPGEPASISCTSSQNIVHSNGNTYLEWYLQKPGQSPQLLIYKVSNRFSGVPDRFSGSGSGTDFTLKISRVEAEDVGVYYCFQVSHVPYTFGGGTKVEIKR	–	–	9900 ± 1800 µg·h/mL	9.84 ± 1.7 mL/day/kg	16.8 ± 1.0 days	12.4 days	0.165 ± 0.0198 L/kg	0.176 ± 0.0308 L/kg	78 pM	migrated more basic
